# According to patent publication CN111732659A:
# Tests used:
# [1] = target: GPC3ΔGPI-FLAG重组蛋白 (Homo sapiens (Human)) (UniProt P51654); assay: ELISA on coated GPC3ΔGPI-FLAG after serum incubation of the antibody
# [2] = target: mCherry-GPC3 (stably expressed on HEK293T cells) (UniProt P51654); assay: immunofluorescence colocalisation on HEK293T cells expressing mCherry-GPC3, confocal microscopy
Molecule,decrease of antigen binding (ELISA OD450) after 72 h at 37°C in FBS against 0 h [1] [%],皮尔森相关系数 (mCherry and Alexa Fluor 488 signals) [2]
HN3-hFc融合抗体 (Fc fusion),55.5,
"纳米抗体G64 (G64-His) (VHH, not shown: small tags and cut ends) VHH: QVQLVESGGALVQPGGSLRLSCAASGRGADTLSLRWYRQAPGKEREWVCGISWLMTTYSYEDSVKGRFTCSRDDARNTVYLQLNSLKPEDTAVYYCASRPRFLEEQLQVSSYWGQGTQVTVSS",0.6,0.803
